Test results: patent publication US20220332795A1 (ARO BIOTHERAPEUTICS, published 2022)

B1: SEQ ID NO 235 (designed binder, not shown: small tags and cut ends)
chain: MLPAPKNLVVSRVTEDSARLSWTAPDAAFDSFFIGYLEPQPPGEAIQLTVPGSERSYDLTGLKPGTEYNVTIQGVKGGFPSLPLSADFTT
B2: ABX1100 (designed binder)
chain: MLPAPKNLVVSRVTEDSARLSWTAPDAAFDSFYIAYAEPRPDGEAILLQVPGSCRSYDLTGLKPGTEYSVLIHGVKGGLLSSPLTAIFTT
modifications: siRNA pair with linker (attachment residue not stated for this molecule)
notes: FN3 domain-siRNA conjugate; also called CD71 FN3 domain siRNA conjugate

How the values were obtained:
[1] = target: T1, human CD71 extracellular domain (human, UniProt P02786 89-760, biotinylated); test: solution ELISA screen (luminescence)
T1 construct: extracellular domain; also called hCD71; huCD71 ECD
T1 sequence (P02786 other isoform, or with tags, fused parts or gaps): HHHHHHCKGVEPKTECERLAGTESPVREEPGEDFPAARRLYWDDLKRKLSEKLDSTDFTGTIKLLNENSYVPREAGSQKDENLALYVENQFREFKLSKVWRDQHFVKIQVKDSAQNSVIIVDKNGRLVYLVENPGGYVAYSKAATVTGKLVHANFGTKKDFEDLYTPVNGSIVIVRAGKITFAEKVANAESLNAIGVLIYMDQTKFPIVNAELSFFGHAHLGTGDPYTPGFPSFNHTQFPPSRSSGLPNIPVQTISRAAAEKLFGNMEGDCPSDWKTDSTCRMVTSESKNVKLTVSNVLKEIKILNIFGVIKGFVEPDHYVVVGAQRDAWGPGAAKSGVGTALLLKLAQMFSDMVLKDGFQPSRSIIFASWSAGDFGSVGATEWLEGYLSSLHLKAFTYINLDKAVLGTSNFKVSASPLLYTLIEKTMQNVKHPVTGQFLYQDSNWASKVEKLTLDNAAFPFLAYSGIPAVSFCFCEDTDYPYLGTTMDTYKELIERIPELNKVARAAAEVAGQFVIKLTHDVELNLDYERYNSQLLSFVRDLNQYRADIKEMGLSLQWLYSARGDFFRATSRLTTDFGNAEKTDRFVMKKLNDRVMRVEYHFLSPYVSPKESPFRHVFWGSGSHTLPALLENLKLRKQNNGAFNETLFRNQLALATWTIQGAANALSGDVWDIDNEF

CD71 apical domain [2] = target: T2, CD71 apical domain (human, UniProt P02786 189-383, limits assumed); test: solution ELISA screen (luminescence)
T2 construct: domain: apical domain
T2 sequence (P02786 189-383 limits assumed): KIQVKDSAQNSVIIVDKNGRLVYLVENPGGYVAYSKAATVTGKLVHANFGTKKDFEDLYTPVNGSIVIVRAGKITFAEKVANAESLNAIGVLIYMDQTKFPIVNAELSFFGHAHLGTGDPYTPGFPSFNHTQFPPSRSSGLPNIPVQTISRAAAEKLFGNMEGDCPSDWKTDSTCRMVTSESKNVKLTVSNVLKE

[3] = target: T1, human CD71 extracellular domain; test: solution ELISA screen, signal ratio to HSA control
CD71 apical domain [4] = target: T2, CD71 apical domain; test: solution ELISA screen, signal ratio to HSA control
human CD71 on cells = target: T3, human CD71 on cells (human, UniProt P02786 1-760); test: Membrane Proteome Array, flow cytometry on QT6 cells
T3 construct: whole, on cells; also called the receptor
T3 sequence (P02786 whole entry): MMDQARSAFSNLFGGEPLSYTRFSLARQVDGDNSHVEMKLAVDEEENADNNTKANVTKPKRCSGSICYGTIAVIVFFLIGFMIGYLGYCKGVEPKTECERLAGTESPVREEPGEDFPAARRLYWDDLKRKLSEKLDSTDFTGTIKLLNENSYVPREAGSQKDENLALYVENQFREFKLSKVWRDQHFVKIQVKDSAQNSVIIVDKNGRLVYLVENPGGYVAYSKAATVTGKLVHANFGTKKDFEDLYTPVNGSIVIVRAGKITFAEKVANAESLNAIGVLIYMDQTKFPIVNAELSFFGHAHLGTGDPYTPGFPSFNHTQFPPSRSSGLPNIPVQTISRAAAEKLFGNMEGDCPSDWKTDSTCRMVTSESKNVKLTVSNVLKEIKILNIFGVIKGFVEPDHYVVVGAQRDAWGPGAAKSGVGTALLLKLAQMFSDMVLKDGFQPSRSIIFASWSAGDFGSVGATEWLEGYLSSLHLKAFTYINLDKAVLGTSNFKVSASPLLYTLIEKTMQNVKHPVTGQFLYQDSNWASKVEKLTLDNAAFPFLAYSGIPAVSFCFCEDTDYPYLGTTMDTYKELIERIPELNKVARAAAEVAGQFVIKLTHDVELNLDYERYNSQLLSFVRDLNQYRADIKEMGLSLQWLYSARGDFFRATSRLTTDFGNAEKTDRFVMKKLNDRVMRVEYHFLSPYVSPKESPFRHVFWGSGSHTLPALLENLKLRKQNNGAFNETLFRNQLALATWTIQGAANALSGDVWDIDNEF

Binder	RLU [1]	RLU (CD71 apical domain [2])	hCD71:HSA [3]	apical domain:HSA (CD71 apical domain [4])	binding result (human CD71 on cells)
B1	943000 RLU	1.67e+06 RLU	39.5 ratio	70.1 ratio	
B2					binds
